Measurements reported in the supplement of paper PMC10567573.

B1: TRIM55 (parent)
chain: YKSFSKEQQTMDNLEKQLICPICL

Variants of: B1
Assay: protein stability index of a GFP-peptide fusion (GPS, HEK-293T) (PSI 1-6); higher = more stable
Details: c terminus: a fixed tail appended
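Also: lentivirally expressed fusions sorted by FACS into six bins by GFP to DsRed ratio, PSI derived from sequencing read proportions per bin multiplied by bin number.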

Compared with YKSFSKEQQTMDMLEKQLICPICL [N13M], YKSFSKEQQTMDPLEKQLICPICL [N13P] is higher in protein stability index: 1.69 for the first, 2.03 for the second.

Compared with YKSFSKEQQTMDQLEKQLICPICL [N13Q], YKSFSKEQQTMDRLEKQLICPICL [N13R] is lower in protein stability index: 2.53 for the first, 1.79 for the second.

First: YKSFSKEQQTMDSLEKQLICPICL [N13S]
Second: YKSFSKEQQTMDTLEKQLICPICL [N13T]
The protein stability index of the first is lower: 1.91 for the first, 2.81 for the second.

First: YKSFSKEQQTMDVLEKQLICPICL [N13V]
Second: YKSFSKEQQTMDWLEKQLICPICL [N13W]
The protein stability index of the first is lower: 1.68 for the first, 2.05 for the second.

Compared with YKSFSKEQQTMDYLEKQLICPICL [N13Y], YKSFSKEQQTMDNAEKQLICPICL [L14A] is higher in protein stability index: 1.83 for the first, 3.03 for the second.

Going from YKSFSKEQQTMDNCEKQLICPICL [L14C] to YKSFSKEQQTMDNDEKQLICPICL [L14D], the protein stability index rises from 2.51 to 2.53.

Going from YKSFSKEQQTMDNEEKQLICPICL [L14E] to YKSFSKEQQTMDNFEKQLICPICL [L14F], the protein stability index falls from 3.2 to 1.88.

Going from YKSFSKEQQTMDNGEKQLICPICL [L14G] to YKSFSKEQQTMDNHEKQLICPICL [L14H], the protein stability index falls from 2.6 to 2.13.

First: YKSFSKEQQTMDNIEKQLICPICL [L14I]
Second: YKSFSKEQQTMDNKEKQLICPICL [L14K]
The protein stability index of the first is lower: 2.06 for the first, 2.58 for the second.

Compared with YKSFSKEQQTMDNMEKQLICPICL [L14M], YKSFSKEQQTMDNNEKQLICPICL [L14N] is higher in protein stability index: 2.53 for the first, 2.73 for the second.

Compared with YKSFSKEQQTMDNPEKQLICPICL [L14P], YKSFSKEQQTMDNQEKQLICPICL [L14Q] is higher in protein stability index: 2.7 for the first, 3.27 for the second.

First: YKSFSKEQQTMDNREKQLICPICL [L14R]
Second: YKSFSKEQQTMDNSEKQLICPICL [L14S]
The protein stability index of the first is lower: 2.58 for the first, 2.8 for the second.

First: YKSFSKEQQTMDNTEKQLICPICL [L14T]
Second: YKSFSKEQQTMDNVEKQLICPICL [L14V]
The protein stability index of the first is higher: 3.03 for the first, 2.23 for the second.

Compared with YKSFSKEQQTMDNWEKQLICPICL [L14W], YKSFSKEQQTMDNYEKQLICPICL [L14Y] is lower in protein stability index: 2.81 for the first, 1.98 for the second.

Compared with YKSFSKEQQTMDNLAKQLICPICL [E15A], YKSFSKEQQTMDNLCKQLICPICL [E15C] is lower in protein stability index: 2.79 for the first, 2.72 for the second.

Going from YKSFSKEQQTMDNLDKQLICPICL [E15D] to YKSFSKEQQTMDNLFKQLICPICL [E15F], the protein stability index falls from 2.13 to 2.1.

Going from YKSFSKEQQTMDNLGKQLICPICL [E15G] to YKSFSKEQQTMDNLHKQLICPICL [E15H], the protein stability index falls from 2.41 to 2.27.

Going from YKSFSKEQQTMDNLKKQLICPICL [E15K] to YKSFSKEQQTMDNLLKQLICPICL [E15L], the protein stability index falls from 2.09 to 1.05.

First: YKSFSKEQQTMDNLMKQLICPICL [E15M]
Second: YKSFSKEQQTMDNLNKQLICPICL [E15N]
The protein stability index of the first is higher: 2.55 for the first, 2.33 for the second.

Compared with YKSFSKEQQTMDNLPKQLICPICL [E15P], YKSFSKEQQTMDNLQKQLICPICL [E15Q] is higher in protein stability index: 2.51 for the first, 2.58 for the second.

Compared with YKSFSKEQQTMDNLRKQLICPICL [E15R], YKSFSKEQQTMDNLSKQLICPICL [E15S] is lower in protein stability index: 2.12 for the first, 1.79 for the second.

First: YKSFSKEQQTMDNLTKQLICPICL [E15T]
Second: YKSFSKEQQTMDNLVKQLICPICL [E15V]
The protein stability index of the first is higher: 2.9 for the first, 1.27 for the second.

Compared with YKSFSKEQQTMDNLWKQLICPICL [E15W], YKSFSKEQQTMDNLEAQLICPICL [K16A] is higher in protein stability index: 1.45 for the first, 1.8 for the second.

Going from YKSFSKEQQTMDNLECQLICPICL [K16C] to YKSFSKEQQTMDNLEDQLICPICL [K16D], the protein stability index rises from 1.82 to 2.33.

Going from YKSFSKEQQTMDNLEEQLICPICL [K16E] to YKSFSKEQQTMDNLEFQLICPICL [K16F], the protein stability index rises from 1.68 to 2.14.

First: YKSFSKEQQTMDNLEGQLICPICL [K16G]
Second: YKSFSKEQQTMDNLEHQLICPICL [K16H]
The protein stability index of the first is lower: 2.08 for the first, 2.89 for the second.

First: YKSFSKEQQTMDNLEIQLICPICL [K16I]
Second: YKSFSKEQQTMDNLELQLICPICL [K16L]
The protein stability index of the first is lower: 1.42 for the first, 1.68 for the second.

Going from YKSFSKEQQTMDNLEMQLICPICL [K16M] to YKSFSKEQQTMDNLENQLICPICL [K16N], the protein stability index falls from 2.15 to 2.07.

First: YKSFSKEQQTMDNLEPQLICPICL [K16P]
Second: YKSFSKEQQTMDNLEQQLICPICL [K16Q]
The protein stability index of the first is higher: 2.57 for the first, 1.83 for the second.

Going from YKSFSKEQQTMDNLERQLICPICL [K16R] to YKSFSKEQQTMDNLESQLICPICL [K16S], the protein stability index falls from 2.03 to 1.81.

Going from YKSFSKEQQTMDNLETQLICPICL [K16T] to YKSFSKEQQTMDNLEVQLICPICL [K16V], the protein stability index falls from 2.23 to 1.76.

Going from YKSFSKEQQTMDNLEWQLICPICL [K16W] to YKSFSKEQQTMDNLEYQLICPICL [K16Y], the protein stability index falls from 1.88 to 1.67.

Compared with YKSFSKEQQTMDNLEKALICPICL [Q17A], YKSFSKEQQTMDNLEKCLICPICL [Q17C] is higher in protein stability index: 1.79 for the first, 2.12 for the second.

Compared with YKSFSKEQQTMDNLEKDLICPICL [Q17D], YKSFSKEQQTMDNLEKELICPICL [Q17E] is lower in protein stability index: 2.76 for the first, 2.32 for the second.

First: YKSFSKEQQTMDNLEKFLICPICL [Q17F]
Second: YKSFSKEQQTMDNLEKGLICPICL [Q17G]
The protein stability index of the first is higher: 2.59 for the first, 2.16 for the second.

Going from YKSFSKEQQTMDNLEKHLICPICL [Q17H] to YKSFSKEQQTMDNLEKILICPICL [Q17I], the protein stability index falls from 2.23 to 1.65.

First: YKSFSKEQQTMDNLEKKLICPICL [Q17K]
Second: YKSFSKEQQTMDNLEKLLICPICL [Q17L]
The protein stability index of the first is higher: 2.32 for the first, 2 for the second.

First: YKSFSKEQQTMDNLEKMLICPICL [Q17M]
Second: YKSFSKEQQTMDNLEKNLICPICL [Q17N]
The protein stability index of the first is lower: 1.48 for the first, 1.89 for the second.

Compared with YKSFSKEQQTMDNLEKPLICPICL [Q17P], YKSFSKEQQTMDNLEKRLICPICL [Q17R] is higher in protein stability index: 1.68 for the first, 2.22 for the second.

First: YKSFSKEQQTMDNLEKSLICPICL [Q17S]
Second: YKSFSKEQQTMDNLEKTLICPICL [Q17T]
The protein stability index of the first is lower: 1.72 for the first, 1.98 for the second.

Compared with YKSFSKEQQTMDNLEKVLICPICL [Q17V], YKSFSKEQQTMDNLEKWLICPICL [Q17W] is higher in protein stability index: 2.01 for the first, 2.31 for the second.

Going from YKSFSKEQQTMDNLEKYLICPICL [Q17Y] to YKSFSKEQQTMDNLEKQAICPICL [L18A], the protein stability index rises from 2.02 to 2.81.

Going from YKSFSKEQQTMDNLEKQCICPICL [L18C] to YKSFSKEQQTMDNLEKQDICPICL [L18D], the protein stability index falls from 3.72 to 2.98.

Compared with YKSFSKEQQTMDNLEKQEICPICL [L18E], YKSFSKEQQTMDNLEKQFICPICL [L18F] is lower in protein stability index: 3.19 for the first, 2.55 for the second.

Going from YKSFSKEQQTMDNLEKQGICPICL [L18G] to YKSFSKEQQTMDNLEKQHICPICL [L18H], the protein stability index falls from 2.84 to 2.75.

Compared with YKSFSKEQQTMDNLEKQIICPICL [L18I], YKSFSKEQQTMDNLEKQKICPICL [L18K] is higher in protein stability index: 2.31 for the first, 2.48 for the second.

Going from YKSFSKEQQTMDNLEKQMICPICL [L18M] to YKSFSKEQQTMDNLEKQNICPICL [L18N], the protein stability index rises from 2.62 to 2.96.
